Test results as given in patent EP1073891B1, “METHOD OF PREDICTING RECEPTOR MODULATING ACTIVITY” (Duke University, priority 1998, dated 1999).

How the values were obtained:
Format in all cases: cell-based
[1] = target: T1, ERβ (Homo sapiens, UniProt Q92731); test: Disruption of ERβ transcriptional activation by peptide-DBD fusions, 3xERELuc reporter in HeLa cells (Example 101.7); settings: 17β-estradiol
Description: (§1) It contains the LXXLL motif. […] HeLa cells were transfected with either ERα or ERβ expression plasmids along with 3xERELuc reporter, pCMVβgal and peptide-DBD fusion constructs as indicated.
Target sequence in this assay (Q92731 whole entry, the tested form may be a part): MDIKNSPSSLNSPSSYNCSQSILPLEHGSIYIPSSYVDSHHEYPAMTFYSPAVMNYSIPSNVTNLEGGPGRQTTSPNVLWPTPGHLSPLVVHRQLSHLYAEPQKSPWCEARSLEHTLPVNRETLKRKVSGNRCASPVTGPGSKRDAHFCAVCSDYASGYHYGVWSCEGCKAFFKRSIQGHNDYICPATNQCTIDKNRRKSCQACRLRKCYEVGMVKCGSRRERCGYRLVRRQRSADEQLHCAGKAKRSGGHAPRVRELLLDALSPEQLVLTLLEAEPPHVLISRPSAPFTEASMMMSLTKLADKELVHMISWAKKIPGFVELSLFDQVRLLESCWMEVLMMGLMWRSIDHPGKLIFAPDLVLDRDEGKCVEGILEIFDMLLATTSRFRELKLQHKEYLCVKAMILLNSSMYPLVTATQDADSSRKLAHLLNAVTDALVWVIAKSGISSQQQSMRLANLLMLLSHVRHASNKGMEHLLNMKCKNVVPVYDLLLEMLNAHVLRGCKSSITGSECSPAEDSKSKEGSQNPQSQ

[2] = target: T2, RAR (Homo sapiens, UniProt P10276); test: Mammalian two-hybrid of LXXLL peptides with nuclear receptors (Example 101.6); settings: mammalian two-hybrid receptor panel
T2 construct: Full length receptors and selected peptides were expressed as VP16 and Gal4 DBD fusions, respectively; expressed in transfected cells; host or cells: mammalian cells
T2 sequence (P10276 1-462): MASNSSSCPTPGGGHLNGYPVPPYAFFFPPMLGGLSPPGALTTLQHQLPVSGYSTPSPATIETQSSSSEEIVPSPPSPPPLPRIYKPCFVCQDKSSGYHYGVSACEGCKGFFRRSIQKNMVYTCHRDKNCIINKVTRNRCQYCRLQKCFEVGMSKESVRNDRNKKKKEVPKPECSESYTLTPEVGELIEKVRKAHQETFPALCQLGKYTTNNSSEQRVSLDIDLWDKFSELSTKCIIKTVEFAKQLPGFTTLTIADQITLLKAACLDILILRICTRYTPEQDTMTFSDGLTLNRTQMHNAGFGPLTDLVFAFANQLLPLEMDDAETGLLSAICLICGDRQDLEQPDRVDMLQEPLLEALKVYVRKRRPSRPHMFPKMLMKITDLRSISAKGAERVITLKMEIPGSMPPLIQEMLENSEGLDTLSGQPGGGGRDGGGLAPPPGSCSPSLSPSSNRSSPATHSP
Description: (§2) Plasmids: All the Gal4DBD-peptide fusions were constructed as follows: DNA sequences code for the peptides were excised from mBAX vector with Xhol and Xbal restriction enzymes and subcloned into pMsx vector derived from pM vector (Clontech) with a linker sequence to generate infram Sall and Nhel sites for cloning. VP16ER-a construct was generated by polymerase chain reaction (PCR) of full length human ER-α cDNA with primers containing ECoRI flanking both 5' and 3' ends. […]
(§3) The interactions between different LXXLL motifs and different nuclear receptors were assayed in a mammalian two-hybrid system (Fig. 18). Full length receptors and selected peptides were expressed as VP16 and Gal4 DBD fusions, respectively. The strength of the interactions was measured by the activity of the 5xGa14Luc3 reporter gene. […]

[3] = target: T3, TR (Homo sapiens, UniProt P10828); test: as above; settings: mammalian two-hybrid receptor panel
T3 construct: Full length receptors and selected peptides were expressed as VP16 and Gal4 DBD fusions, respectively; expressed in transfected cells; host or cells: mammalian cells; the plasmid was a gift (D.D. More, Baylor College of Medicine)
T3 sequence (P10828 1-461): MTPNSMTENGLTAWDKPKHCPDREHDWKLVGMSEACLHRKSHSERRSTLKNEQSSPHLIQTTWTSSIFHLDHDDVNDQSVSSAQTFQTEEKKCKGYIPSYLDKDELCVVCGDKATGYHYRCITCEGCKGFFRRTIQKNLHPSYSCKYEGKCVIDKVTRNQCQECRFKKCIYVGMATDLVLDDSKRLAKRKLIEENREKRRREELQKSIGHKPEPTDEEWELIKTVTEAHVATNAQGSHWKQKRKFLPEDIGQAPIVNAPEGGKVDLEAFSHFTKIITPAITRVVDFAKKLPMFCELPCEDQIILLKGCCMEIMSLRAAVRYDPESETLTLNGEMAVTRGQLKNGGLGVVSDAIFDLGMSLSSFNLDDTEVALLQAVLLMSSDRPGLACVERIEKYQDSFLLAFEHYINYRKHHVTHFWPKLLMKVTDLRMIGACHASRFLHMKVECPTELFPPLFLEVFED
Description: as §2, §3

[4] = target: T4, ERα (Homo sapiens, UniProt P03372); test: Disruption of ERα transcriptional activity by peptide-Gal4DBD fusions, 3xERELuc reporter in HeLa cells (Examples 101.4, 101.7)
T4 sequence (P03372 1-595): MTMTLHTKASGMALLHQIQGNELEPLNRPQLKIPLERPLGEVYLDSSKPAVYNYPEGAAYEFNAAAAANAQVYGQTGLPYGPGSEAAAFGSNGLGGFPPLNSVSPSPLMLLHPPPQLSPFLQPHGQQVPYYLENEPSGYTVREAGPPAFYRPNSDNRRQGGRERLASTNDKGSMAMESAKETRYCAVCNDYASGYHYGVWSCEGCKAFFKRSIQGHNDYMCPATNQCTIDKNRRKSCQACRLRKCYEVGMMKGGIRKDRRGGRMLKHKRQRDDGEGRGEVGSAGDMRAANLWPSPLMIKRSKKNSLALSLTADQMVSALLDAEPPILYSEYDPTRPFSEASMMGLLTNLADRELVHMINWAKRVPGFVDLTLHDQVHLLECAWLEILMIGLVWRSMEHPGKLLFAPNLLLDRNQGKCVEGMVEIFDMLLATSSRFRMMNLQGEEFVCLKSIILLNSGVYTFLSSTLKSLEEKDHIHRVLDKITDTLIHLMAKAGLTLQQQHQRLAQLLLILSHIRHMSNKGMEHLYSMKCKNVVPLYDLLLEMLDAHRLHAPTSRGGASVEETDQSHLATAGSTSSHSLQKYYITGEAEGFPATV
Experimental: HeLa cells were transfected with ERα expression plasmid (RST7ERα), 3xERELuc reporter, pCMVβgal along with different peptide-Gal4DBD fusion constructs. pM is the Gal4DBD control without peptide fusion. Luciferase activity was measured and normalized (Fig. 16). The ability of different peptides to disrupt ERα transcriptional activity correlates with the affinity of these peptides to ERα as measured in mammalian two-hybrid assays in [Figure 15(A)]. […] Two copies of LXXLL motifs interact synergistically to disrupt ER transcriptional activity. 2XF6: two copies of F6 peptide was constructed in tandem with a 54-amino acid spacing linker that has the same sequence as in that in between GRIP-1 NR box II and NR box III. F6G:Ga14DBD-F6 fusion with only one copy of F6 peptide plus the linker. Transient transfection was performed in HeLa cells with 3xERELuc, RST7ERα, pCMVβgal and increasing amount of Gal4DBD-peptide fusion constructs as indicated in the X-axis.
as §1

[5] = target: T1, ERβ; test: Mammalian two-hybrid of LXXLL peptides with nuclear receptors (Example 101.6); design: Full length receptors and selected peptides were expressed as VP16 and Gal4 DBD fusions, respectively; expressed in transfected cells; settings: mammalian two-hybrid receptor panel
Description: as §2, §3
Target sequence in this assay (Q92731 whole entry, species assumed, the tested form may be a part): as the sequence (Q92731 whole entry, the tested form may be a part) above

## SSIKDFPNLISLLSR [Peptide #293]
[1]
  disruption of the transcriptional activation by ERβ: strongly disrupted
[2]
  interaction with RARα: selective interactions
[3]
  interaction with TRβ: selective interactions
[4]
  disruption of ERα transcriptional activity: did not interfere
[5]
  interaction with ERβ: selective interactions
